The test concerns the target Bovine plasma fibronectin (bovine) (UniProt P07589). In words: dynamic single-molecule force spectroscopy (AFM); fibronectin adsorbed on a gold surface; integrin or proteoglycan tethered by PEG to the AFM tip; PBS; trigger force 500 pN, no dwell; retraction speed varied; Bell-Evans fit of rupture force against ln(loading rate), fm = 10^7 s^-1 assumed.

Sequence of Bovine plasma fibronectin (bovine) (P07589 33-2478): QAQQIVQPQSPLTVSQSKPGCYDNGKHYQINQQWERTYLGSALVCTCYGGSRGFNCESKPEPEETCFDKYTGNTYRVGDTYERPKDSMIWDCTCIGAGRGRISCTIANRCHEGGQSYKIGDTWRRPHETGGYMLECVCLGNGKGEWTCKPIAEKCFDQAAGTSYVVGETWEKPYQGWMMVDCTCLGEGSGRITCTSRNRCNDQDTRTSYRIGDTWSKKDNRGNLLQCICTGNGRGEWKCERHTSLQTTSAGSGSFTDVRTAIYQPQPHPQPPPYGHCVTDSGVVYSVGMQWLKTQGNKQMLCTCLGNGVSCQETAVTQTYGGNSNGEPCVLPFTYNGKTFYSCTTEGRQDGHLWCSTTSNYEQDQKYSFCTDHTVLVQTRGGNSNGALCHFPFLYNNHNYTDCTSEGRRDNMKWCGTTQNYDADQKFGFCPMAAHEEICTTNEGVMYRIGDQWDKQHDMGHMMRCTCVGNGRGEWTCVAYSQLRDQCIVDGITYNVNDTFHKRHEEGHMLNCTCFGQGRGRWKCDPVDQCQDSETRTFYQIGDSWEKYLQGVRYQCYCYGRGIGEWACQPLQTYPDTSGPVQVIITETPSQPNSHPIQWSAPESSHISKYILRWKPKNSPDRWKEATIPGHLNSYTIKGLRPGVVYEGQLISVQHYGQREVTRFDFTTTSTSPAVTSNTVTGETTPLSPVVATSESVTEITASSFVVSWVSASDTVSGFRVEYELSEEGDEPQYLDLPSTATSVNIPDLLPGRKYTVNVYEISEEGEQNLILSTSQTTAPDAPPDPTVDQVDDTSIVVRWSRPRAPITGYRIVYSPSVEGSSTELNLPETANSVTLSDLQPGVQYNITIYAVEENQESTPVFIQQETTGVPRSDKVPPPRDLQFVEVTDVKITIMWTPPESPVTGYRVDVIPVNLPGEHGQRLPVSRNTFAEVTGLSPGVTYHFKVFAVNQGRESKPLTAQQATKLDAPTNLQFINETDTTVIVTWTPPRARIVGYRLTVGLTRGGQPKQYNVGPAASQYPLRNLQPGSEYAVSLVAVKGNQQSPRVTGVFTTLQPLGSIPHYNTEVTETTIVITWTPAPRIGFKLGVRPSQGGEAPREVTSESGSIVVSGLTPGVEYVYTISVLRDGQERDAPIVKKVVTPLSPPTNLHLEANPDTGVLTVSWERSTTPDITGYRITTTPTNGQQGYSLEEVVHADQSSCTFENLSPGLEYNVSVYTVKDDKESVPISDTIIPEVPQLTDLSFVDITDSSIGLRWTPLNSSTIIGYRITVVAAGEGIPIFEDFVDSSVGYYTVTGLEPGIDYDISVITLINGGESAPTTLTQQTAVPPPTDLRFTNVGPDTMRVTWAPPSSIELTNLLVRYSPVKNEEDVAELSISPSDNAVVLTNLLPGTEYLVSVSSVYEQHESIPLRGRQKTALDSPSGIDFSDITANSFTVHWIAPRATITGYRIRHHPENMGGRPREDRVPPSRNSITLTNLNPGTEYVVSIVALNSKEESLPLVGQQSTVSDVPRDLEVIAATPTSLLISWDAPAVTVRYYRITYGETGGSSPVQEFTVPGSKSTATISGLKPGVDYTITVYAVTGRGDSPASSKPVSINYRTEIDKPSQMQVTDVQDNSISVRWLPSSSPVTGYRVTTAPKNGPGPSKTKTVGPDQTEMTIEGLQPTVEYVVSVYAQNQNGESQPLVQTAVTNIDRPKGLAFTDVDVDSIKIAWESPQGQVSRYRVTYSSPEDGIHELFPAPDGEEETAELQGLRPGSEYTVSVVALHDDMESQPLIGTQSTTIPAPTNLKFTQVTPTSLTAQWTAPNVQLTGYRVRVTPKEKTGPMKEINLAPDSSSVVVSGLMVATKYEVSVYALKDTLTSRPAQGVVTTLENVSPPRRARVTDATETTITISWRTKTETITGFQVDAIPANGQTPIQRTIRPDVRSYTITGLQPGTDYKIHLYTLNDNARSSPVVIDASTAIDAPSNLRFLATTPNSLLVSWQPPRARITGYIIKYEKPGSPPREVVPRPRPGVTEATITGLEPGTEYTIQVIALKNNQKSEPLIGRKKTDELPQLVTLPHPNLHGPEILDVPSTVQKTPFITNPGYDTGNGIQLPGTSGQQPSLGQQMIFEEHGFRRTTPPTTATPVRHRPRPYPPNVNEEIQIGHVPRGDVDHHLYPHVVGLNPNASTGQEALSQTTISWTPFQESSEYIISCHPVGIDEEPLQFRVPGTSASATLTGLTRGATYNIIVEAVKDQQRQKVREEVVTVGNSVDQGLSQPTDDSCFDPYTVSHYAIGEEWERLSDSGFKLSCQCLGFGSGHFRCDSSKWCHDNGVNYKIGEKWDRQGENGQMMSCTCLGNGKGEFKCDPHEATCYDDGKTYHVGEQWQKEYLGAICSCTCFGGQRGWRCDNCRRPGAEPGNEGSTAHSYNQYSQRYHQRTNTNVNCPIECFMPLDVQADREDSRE

“Recombinant human α5β1-integrin (from UniProt P08648 42-1049; P05556 21-728) (receptor)”: the dissociation rate Kd, inner barrier stood at 70 s⁻¹ and the dissociation rate Kd, outer barrier was 0.18 s⁻¹.
